The record followed here is paper PMC11611905, “Recruitment of autophagy initiator TAX1BP1 advances aggrephagy from cargo collection to sequestration” (The EMBO Journal, 2024).

What all share (details): both partners purified
One experiment deals with T1, 10x-His-mCherry-TAX1BP1 (UniProt Q86VP1 1-789).
T1 construct: TAX1BP1, full-length (FL); also called mCh-TAX1BP1; mCherry-TAX1BP1 FL; source: Sf9 insect cells (pLIB vector, baculovirus), purified; not shown: mCherry, N-terminal, kept
The experiment can be described thus: microscopy-based protein interaction assay; mCherry-TAX1BP1 on RFP-trap beads, GFP-tagged NBR1 fragment CC2-LIR1 as prey.

A further experiment deals with T2, 10x-His-GFP-TAX1BP1 (UniProt Q86VP1 1-789).
T2 construct: TAX1BP1, full-length (FL); also called GFP-TAX1BP1 FL; recombinant TAX1BP1; source: Sf9 insect cells (pLIB vector, baculovirus), purified; not shown: GFP, N-terminal, kept
T2 sequence (Q86VP1 whole entry): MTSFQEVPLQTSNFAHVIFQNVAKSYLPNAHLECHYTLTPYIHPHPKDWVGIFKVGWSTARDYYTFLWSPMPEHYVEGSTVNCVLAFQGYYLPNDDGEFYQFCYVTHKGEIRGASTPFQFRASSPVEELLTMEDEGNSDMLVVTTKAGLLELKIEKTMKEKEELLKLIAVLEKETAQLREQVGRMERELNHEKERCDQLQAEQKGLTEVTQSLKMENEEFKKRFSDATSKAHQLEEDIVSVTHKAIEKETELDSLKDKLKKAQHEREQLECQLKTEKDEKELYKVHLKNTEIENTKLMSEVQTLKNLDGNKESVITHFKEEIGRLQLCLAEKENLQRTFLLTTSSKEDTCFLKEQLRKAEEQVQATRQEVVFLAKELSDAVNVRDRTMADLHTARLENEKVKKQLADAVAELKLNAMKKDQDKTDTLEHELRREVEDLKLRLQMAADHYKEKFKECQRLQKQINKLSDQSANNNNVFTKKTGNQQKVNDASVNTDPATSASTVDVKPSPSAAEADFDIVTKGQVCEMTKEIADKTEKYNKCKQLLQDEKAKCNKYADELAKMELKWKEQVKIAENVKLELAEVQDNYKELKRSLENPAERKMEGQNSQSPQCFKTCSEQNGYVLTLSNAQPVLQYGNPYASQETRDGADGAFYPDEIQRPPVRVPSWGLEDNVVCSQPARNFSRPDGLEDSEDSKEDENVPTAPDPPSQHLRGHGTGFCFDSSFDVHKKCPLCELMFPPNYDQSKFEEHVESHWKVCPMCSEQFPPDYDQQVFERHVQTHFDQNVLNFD
The experiment can be described thus: peptide or protein array; entire NBR1 sequence spotted as 12 aa peptides on a membrane; GFP-TAX1BP1 at 50 µg/ml in SEC buffer, 2 h at RT; detection by western blot. For orientation: A western blot detects proteins with antibodies after separation by electrophoresis.

Another experiment deals with T3, GFP-NBR1 (purified) (UniProt Q14596 1-966).
T3 construct: NBR1; source: HEK293 (pCAGGSsH-C vector, VBCF ProTech facility), purified; not shown: GFP, N-terminal, kept
T3 sequence (looked up): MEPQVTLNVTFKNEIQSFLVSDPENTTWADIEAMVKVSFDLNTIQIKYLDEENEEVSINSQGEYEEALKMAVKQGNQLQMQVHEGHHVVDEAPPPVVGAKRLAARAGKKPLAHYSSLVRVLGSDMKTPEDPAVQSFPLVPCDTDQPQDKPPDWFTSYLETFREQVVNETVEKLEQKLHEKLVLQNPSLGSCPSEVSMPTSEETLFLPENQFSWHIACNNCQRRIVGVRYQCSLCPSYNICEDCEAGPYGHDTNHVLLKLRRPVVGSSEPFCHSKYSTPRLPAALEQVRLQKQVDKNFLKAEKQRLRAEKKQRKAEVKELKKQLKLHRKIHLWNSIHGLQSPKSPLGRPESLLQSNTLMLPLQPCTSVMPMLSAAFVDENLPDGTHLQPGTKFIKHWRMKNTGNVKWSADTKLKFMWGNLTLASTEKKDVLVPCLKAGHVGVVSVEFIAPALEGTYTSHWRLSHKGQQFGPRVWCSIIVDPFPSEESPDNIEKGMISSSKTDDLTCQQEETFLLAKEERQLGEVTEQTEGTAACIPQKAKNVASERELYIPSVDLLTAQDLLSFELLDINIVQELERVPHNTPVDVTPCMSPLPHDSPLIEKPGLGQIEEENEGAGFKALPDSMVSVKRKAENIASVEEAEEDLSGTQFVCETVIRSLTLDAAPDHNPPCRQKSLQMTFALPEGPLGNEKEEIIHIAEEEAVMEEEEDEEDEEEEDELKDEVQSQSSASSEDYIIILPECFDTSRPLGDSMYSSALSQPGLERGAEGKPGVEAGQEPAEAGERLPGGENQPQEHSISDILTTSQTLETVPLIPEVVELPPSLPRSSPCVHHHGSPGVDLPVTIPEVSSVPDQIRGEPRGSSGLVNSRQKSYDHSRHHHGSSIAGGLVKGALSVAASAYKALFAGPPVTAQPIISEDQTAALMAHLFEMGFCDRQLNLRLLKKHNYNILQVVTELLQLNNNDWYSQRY
Kind of experiment: microscopy-based protein interaction assay; GST-TAX1BP1 (FL, N-domain, point mutants; 2.5 µM) as bait on GSH beads, 1 µM GFP-NBR1 as prey; SEC buffer (25 mM HEPES pH 7.5, 150 mM NaCl, 1 mM DTT); 15-30 min at RT; confocal imaging of the beads.

T1 sequence (Q86VP1 whole entry): as the sequence (Q86VP1 whole entry) above

B1: GFP-CC2-LIR1 (NBR1 aa685-aa757) (domain or fragment, UniProt Q14596 685-757, looked up)
chain: LGNEKEEIIHIAEEEAVMEEEEDEEDEEEEDELKDEVQSQSSASSEDYIIILPECFDTSRPLGDSMYSSALSQ
notes: the methods name the purified protein GST-GFP-CC2-LIR1 and give two ways of elution (TEV cleavage or glutathione) without saying which was used; also called GST-GFP-CC2-LIR1; source: E. coli Rosetta pLysS, purified (GSH beads, SEC); not shown: GFP, N-terminal, kept
B1: the binding result with 10x-His-mCherry-TAX1BP1 was “binds”.

B2: NBR1 peptides of binding region 1 (aa347-aa365) (peptide, UniProt Q14596 347-365, looked up)
peptide: RPESLLQSNTLMLPLQPCT
notes: NBR1 aa347-365, covered by overlapping 12 aa spots of the peptide array; also called parts of the FW domain; source: synthetic peptides spotted on a membrane (Peptide Synthesis facility of the IMP)
B2: the binding result in the experiment with 10x-His-GFP-TAX1BP1 is on record as “binds”.

B3: NBR1 peptides of binding region 2 (aa731-aa749) (peptide, UniProt Q14596 731-749, looked up)
peptide: DYIIILPECFDTSRPLGDS
notes: NBR1 aa731-749, covered by overlapping 12 aa spots of the peptide array; source: synthetic peptides spotted on a membrane (Peptide Synthesis facility of the IMP)
In the case of B3, in the experiment with 10x-His-GFP-TAX1BP1, the binding result is listed as “binds”.

B4: GST-N-domain (aa420-506 of TAX1BP1) (domain or fragment, UniProt Q86VP1 420-506, looked up)
chain: DQDKTDTLEHELRREVEDLKLRLQMAADHYKEKFKECQRLQKQINKLSDQSANNNNVFTKKTGNQQKVNDASVNTDPATSASTVDVK
On to B4, for which, in the experiment with GFP-NBR1 (purified), the binding result is reported as “binds”.
